These are literature values, as cited in article PMC9958082.

In this data set the target is E-cadherin (Homo sapiens) (UniProt P12830). The following applies: cited from earlier work.
Sequence of UniProt P12830 (P12830 155-709): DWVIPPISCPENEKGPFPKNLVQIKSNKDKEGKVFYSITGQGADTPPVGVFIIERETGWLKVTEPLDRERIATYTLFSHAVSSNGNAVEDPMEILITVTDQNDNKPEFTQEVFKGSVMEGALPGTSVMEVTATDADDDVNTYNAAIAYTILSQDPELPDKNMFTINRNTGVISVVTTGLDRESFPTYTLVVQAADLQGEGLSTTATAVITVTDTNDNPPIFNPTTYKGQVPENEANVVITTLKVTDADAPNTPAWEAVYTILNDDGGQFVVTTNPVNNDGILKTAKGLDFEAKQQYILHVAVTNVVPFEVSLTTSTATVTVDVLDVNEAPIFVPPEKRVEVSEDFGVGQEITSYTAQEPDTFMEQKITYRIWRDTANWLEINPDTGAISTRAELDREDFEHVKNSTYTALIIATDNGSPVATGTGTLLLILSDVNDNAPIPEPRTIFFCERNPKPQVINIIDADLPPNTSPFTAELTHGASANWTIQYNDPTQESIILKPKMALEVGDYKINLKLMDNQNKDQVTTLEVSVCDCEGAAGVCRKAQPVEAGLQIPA

For the substance “HA (hemagglutinin complex) (from UniProt P46085)”, the dissociation constant Kd is 2300 nM.
